T1: ACAD9 (mouse (endogenous in mouse heart)), Q8JZN5
T1 chain: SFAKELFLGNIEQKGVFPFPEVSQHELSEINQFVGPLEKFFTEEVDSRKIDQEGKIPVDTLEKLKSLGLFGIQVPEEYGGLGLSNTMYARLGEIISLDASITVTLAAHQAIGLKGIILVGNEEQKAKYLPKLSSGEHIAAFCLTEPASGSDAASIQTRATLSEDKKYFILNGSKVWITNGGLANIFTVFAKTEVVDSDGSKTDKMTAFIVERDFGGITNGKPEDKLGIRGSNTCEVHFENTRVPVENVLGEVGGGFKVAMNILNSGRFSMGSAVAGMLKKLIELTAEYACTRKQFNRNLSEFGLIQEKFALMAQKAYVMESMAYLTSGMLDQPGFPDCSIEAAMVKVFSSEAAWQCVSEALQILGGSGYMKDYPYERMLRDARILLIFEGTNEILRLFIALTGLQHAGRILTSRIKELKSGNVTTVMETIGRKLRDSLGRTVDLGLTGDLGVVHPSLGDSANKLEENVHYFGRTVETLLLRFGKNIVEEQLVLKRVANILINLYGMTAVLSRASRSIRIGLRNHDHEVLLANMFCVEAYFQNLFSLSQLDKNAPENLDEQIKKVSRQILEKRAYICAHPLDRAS


How the values were obtained:
native gel or EMSA = target: the molecule itself; assay: native gel or EMSA
[1] = target: T1, ACAD9 (mouse (endogenous in mouse …)); assay: native gel or EMSA; conditions: remark: other sources report otherwise

stoichiometry N [1] | Binder | stoichiometry N (native gel or EMSA)
 | oxoglutarate dehydrogenase (OGDH) (enzyme, mouse (endogenous in mouse heart), UniProt Q60597 41-1023, looked up) SAPVAAEPFLSGTSSNYVEEMYCAWLENPKSVHKSWDIFFRNTNAGAPPGTAYQSPLSLSRSSLATMAHAQSLVEAQPNVDKLVEDHLAVQSLIRAYQIRGHHVAQLDPLGILDADLDSSVPADIISSTDKLGFYGLHESDLDKVFHLPTTTFIGGQEPALPLREIIRRLEMAYCQHIGVEFMFINDLEQCQWIRQKFETPGIMQFTNEEKRTLLARLVRSTRFEEFLQRKWSSEKRFGLEGCEVLIPALKTIIDMSSANGVDYVIMGMPHRGRLNVLANVIRKELEQIFCQFDSKLEAADEGSGDMKYHLGMYHRRINRVTDRNITLSLVANPSHLEAADPVVMGKTKAEQFYCGDTEGKKVMSILLHGDAAFAGQGIVYETFHLSDLPSYTTHGTVHVVVNNQIGFTTDPRMARSSPYPTDVARVVNAPIFHVNSDDPEAVMYVCKVAAEWRNTFHKDVVVDLVCYRRNGHNEMDEPMFTQPLMYKQIRKQKPVLQKYAELLVSQGVVNQPEYEEEISKYDKICEEAFTRSKDEKILHIKHWLDSPWPGFFTLDGQPRSMTCPSTGLEEDVLFHIGKVASSVPVENFTIHGGLSRILKTRRELVTNRTVDWALAEYMAFGSLLKEGIHVRLSGQDVERGTFSHRHHVLHDQNVDKRTCIPMNHLWPNQAPYTVCNSSLSEYGVLGFELGFAMASPNALVLWEAQFGDFNNMAQCIIDQFICPGQAKWVRQNGIVLLLPHGMEGMGPEHSSARPERFLQMCNDDPDVLPDLQEENFDINQLYDCNWIVVNCSTPGNFFHVLRRQILLPFRKPLIVFTPKSLLRHPEARTSFDEMLPGTHFQRVIPENGPAAQDPHKVKRLLFCTGKVYYDLTRERKARNMEEEVAITRIEQLSPFPFDLLLKEAQKYPNAELAWCQEEHKNQGYYDYVKPRLRTTIDRAKPVWYAGRDPAAAPATGNKKTHLTELQRFLDTAFDLDAFKKFS | 2
2 | ACAD9, Q8JZN5 42-625 (enzyme) SFAKELFLGNIEQKGVFPFPEVSQHELSEINQFVGPLEKFFTEEVDSRKIDQEGKIPVDTLEKLKSLGLFGIQVPEEYGGLGLSNTMYARLGEIISLDASITVTLAAHQAIGLKGIILVGNEEQKAKYLPKLSSGEHIAAFCLTEPASGSDAASIQTRATLSEDKKYFILNGSKVWITNGGLANIFTVFAKTEVVDSDGSKTDKMTAFIVERDFGGITNGKPEDKLGIRGSNTCEVHFENTRVPVENVLGEVGGGFKVAMNILNSGRFSMGSAVAGMLKKLIELTAEYACTRKQFNRNLSEFGLIQEKFALMAQKAYVMESMAYLTSGMLDQPGFPDCSIEAAMVKVFSSEAAWQCVSEALQILGGSGYMKDYPYERMLRDARILLIFEGTNEILRLFIALTGLQHAGRILTSRIKELKSGNVTTVMETIGRKLRDSLGRTVDLGLTGDLGVVHPSLGDSANKLEENVHYFGRTVETLLLRFGKNIVEEQLVLKRVANILINLYGMTAVLSRASRSIRIGLRNHDHEVLLANMFCVEAYFQNLFSLSQLDKNAPENLDEQIKKVSRQILEKRAYICAHPLDRAS | 
